Experimental data published in US20160145654.

Target: IL-2-phaP fusion polypeptide on the surface of polymer particles (PHA granules), P04351
Sequence (P04351 whole entry, looked up, the tested form may be a part): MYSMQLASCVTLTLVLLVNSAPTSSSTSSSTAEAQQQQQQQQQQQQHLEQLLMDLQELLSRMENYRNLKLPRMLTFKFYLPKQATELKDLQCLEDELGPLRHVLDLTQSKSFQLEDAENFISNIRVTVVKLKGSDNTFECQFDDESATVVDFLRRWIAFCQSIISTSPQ

B1: bovine enterokinase (protein)
chain: IVGGSDSREGAWPWVVALYFDDQQVCGASLVSRDWLVSAAHCVYGRNMEPSKWKAVLGLHMASNLTSPQIETRLIDQIVINPHYNKRRKNNDIAMMHLEMKVNYTDYIQPICLPEENQVFPPGRICSIAGWGALIYQGSTADVLQEADVPLLSNEKCQQQMPEYNITENMVCAGYEAGGVDSCQGDSGGPLMCQENNRWLLAGVTSFGYQCALPNRPGVYARVPRFTEWIQSFLH
fluorescence of IL-2-phaP particles stained with anti-IL-2-PE after 1 hr incubation with enterokinase (FACS): a smaller shift in fluorescence intensity indicates that a proportion of IL-2 has been cleaved from the particles
fluorescence of IL-2-phaP particles stained with anti-IL-2-PE after 16 hours incubation with enterokinase (FACS): no IL-2 is detectable on the surface of the polymer particles, indicating the IL-2 has been cleaved from the polymer particles
